Measured values from paper PMC9765476, “Malic Enzyme, not Malate Dehydrogenase, Mainly Oxidizes Malate That Originates from the Tricarboxylic Acid Cycle in Cyanobacteria” (mBio, 2022).

Key:
Test in all cases: purified protein
purified protein [1] = substrate: NC(=O)C1=CN([C@@H]2O[C@H](COP(=O)(O)OP(=O)(O)OC[C@H]3O[C@@H](n4cnc5c(N)ncnc54)[C@H](O)[C@@H]3O)[C@@H](O)[C@H]2O)C=CC1; assay type: biochemical, Limnospira platensis; conditions: 0.5 mM oxaloacetate, pH 8.5, 50°C, reductive reaction, varied: cofactor
purified protein [2] = substrate: O=C(O)CC(=O)C(=O)O; assay type: biochemical, Limnospira platensis; conditions: 0.1 mM NADH, pH 8.5, 50°C, reductive reaction
purified protein [3] = substrate: NC(=O)c1ccc[n+]([C@@H]2O[C@H](COP(=O)(O)OP(=O)(O)OC[C@H]3O[C@@H](n4cnc5c(N)ncnc54)[C@H](O)[C@@H]3O)[C@@H](O)[C@H]2O)c1; assay type: biochemical, Limnospira platensis; conditions: 1 mM malate, pH 8.5, 50°C, malate oxidation, varied: cofactor
purified protein [4] = substrate: O=C(O)C[C@H](O)C(=O)O; conditions: malate oxidation
purified protein [5] = substrate: NC(=O)c1ccc[n+]([C@@H]2O[C@H](COP(=O)(O)OP(=O)(O)OC[C@H]3O[C@@H](n4cnc5c(N)ncnc54)[C@H](OP(=O)(O)O)[C@@H]3O)[C@@H](O)[C@H]2O)c1; assay type: biochemical, Synechocystis sp. PCC 6803; conditions: 3 mM malate, 100 mM NH4Cl, 0.5 mM MnCl2, pH 8.3, 50°C, malate oxidation, varied: cofactor
purified protein [6] = substrate: NC(=O)c1ccc[n+]([C@@H]2O[C@H](COP(=O)(O)OP(=O)(O)OC[C@H]3O[C@@H](n4cnc5c(N)ncnc54)[C@H](OP(=O)(O)O)[C@@H]3O)[C@@H](O)[C@H]2O)c1; assay type: biochemical, Nostoc sp. PCC 7120 = FACHB-418; conditions: 3 mM malate, 100 mM NH4Cl, 0.1 mM MnCl2, pH 8.8, 52°C, malate oxidation, varied: cofactor
purified protein [7] = substrate: NC(=O)C1=CN([C@@H]2O[C@H](COP(=O)(O)OP(=O)(O)OC[C@H]3O[C@@H](n4cnc5c(N)ncnc54)[C@H](OP(=O)(O)O)[C@@H]3O)[C@@H](O)[C@H]2O)C=CC1; assay type: biochemical, Nostoc sp. PCC 7120 = FACHB-418; conditions: 30 mM pyruvate, 100 mM NH4Cl, 0.1 mM MnCl2, 50 mM KHCO3, pH 8.8, 52°C, reductive reaction, varied: cofactor
purified protein [8] = substrate: CC(=O)C(=O)O; assay type: biochemical, Nostoc sp. PCC 7120 = FACHB-418; conditions: 0.1 mM NADPH, 100 mM NH4Cl, 0.1 mM MnCl2, 50 mM KHCO3, pH 8.8, 52°C, reductive reaction
purified protein [9] = substrate: NC(=O)C1=CN([C@@H]2O[C@H](COP(=O)(O)OP(=O)(O)OC[C@H]3O[C@@H](n4cnc5c(N)ncnc54)[C@H](O)[C@@H]3O)[C@@H](O)[C@H]2O)C=CC1; assay type: biochemical, Nostoc sp. PCC 7120 = FACHB-418; conditions: 0.1 mM oxaloacetate, pH 9.0, 50°C, reductive reaction, varied: cofactor
purified protein [10] = substrate: O=C(O)CC(=O)C(=O)O; assay type: biochemical, Nostoc sp. PCC 7120 = FACHB-418; conditions: 0.1 mM NADH, pH 9.0, 50°C, reductive reaction
purified protein [11] = substrate: NC(=O)c1ccc[n+]([C@@H]2O[C@H](COP(=O)(O)OP(=O)(O)OC[C@H]3O[C@@H](n4cnc5c(N)ncnc54)[C@H](O)[C@@H]3O)[C@@H](O)[C@H]2O)c1; assay type: biochemical, Nostoc sp. PCC 7120 = FACHB-418; conditions: 5 mM malate, pH 9.0, 50°C, malate oxidation, varied: cofactor
purified protein [12] = substrate: NC(=O)C1=CN([C@@H]2O[C@H](COP(=O)(O)OP(=O)(O)OC[C@H]3O[C@@H](n4cnc5c(N)ncnc54)[C@H](O)[C@@H]3O)[C@@H](O)[C@H]2O)C=CC1; assay type: biochemical, Synechocystis sp. PCC 6803; conditions: 0.5 mM oxaloacetate, pH 8.0, 50°C, reductive reaction, varied: cofactor
purified protein [13] = substrate: O=C(O)CC(=O)C(=O)O; assay type: biochemical, Synechocystis sp. PCC 6803; conditions: 0.1 mM NADH, pH 8.0, 50°C, reductive reaction
purified protein [14] = substrate: NC(=O)c1ccc[n+]([C@@H]2O[C@H](COP(=O)(O)OP(=O)(O)OC[C@H]3O[C@@H](n4cnc5c(N)ncnc54)[C@H](O)[C@@H]3O)[C@@H](O)[C@H]2O)c1; assay type: biochemical, Synechocystis sp. PCC 6803; conditions: 4 mM malate, pH 8.0, 50°C, malate oxidation, varied: cofactor
[15] = 8 mM NAD+, pH 8.5, 50°C, pH 8.5, 50.0 °C
[16] = 0.5 mM NADP+, 100 mM NH4Cl, 0.5 mM MnCl2, pH 8.3, 50°C, pH 8.3, 50.0 °C
[17] = 0.5 mM NADP+, 100 mM NH4Cl, 0.1 mM MnCl2, pH 8.8, 52°C, pH 8.8, 52.0 °C
[18] = 8 mM NAD+, pH 9.0, 50°C, pH 9.0, 50.0 °C
[19] = 8 mM NAD+, pH 8.0, 50°C, pH 8.0, 50.0 °C

B1: ArMDH (Limnospira platensis NIES-46) (protein)
chain: MQMASSMFFPPSCHPTQVSIIGAGKVGGTLAQRIAESNVAHVVLLDVVEGLPQGVALDLMQAGSVEGHDRKILGTNDYADTAGSDVVVITAGRPRTPGMNRNDLIETNAPIVARAVTNAIASSPNAVIIIVTNPLDVMTYIAWQVSQIEPFRIMGMAGVLDSARFQAFIATELNVSVADVNATVMGSHGDLMVPLPRYSTVNGIPITELMDTETINRLIARTRNGGAEIVGLLKTGGAYYAPASSVRTMVESILLNRRRLLPTSAYLKGEYGMKDIFLGVPCWLGCRGVEAVLELNLTDNEREALNSCAQSVREGIEKADAVLAATAAV
notes: full length, GST-tagged (pGEX6P-1), tag kept, E. coli BL21(DE3)
Purified protein [1]
  K0.5: 0.0085 ± 0.0025 mM
  kcat: 1.7 ± 0.1 s⁻¹
  kcat/Km: 214000 ± 50000 M⁻¹ s⁻¹
Purified protein [2]
  K0.5: 0.041 ± 0.001 mM
  kcat: 1.4 ± 0.03 s⁻¹
  kcat/Km: 34000 ± 400 M⁻¹ s⁻¹
Purified protein [3]
  K0.5: 0.30 ± 0.02 mM
  kcat: 0.5 ± 0.01 s⁻¹
  kcat/Km: 1700 ± 100 M⁻¹ s⁻¹
Purified protein [4]; [15]
  K0.5: 0.034 ± 0.002 mM
  kcat: 0.25 s⁻¹
  kcat/Km: 7300 M⁻¹ s⁻¹

B2: SyME (Synechocystis sp. PCC 6803 substr. Kazusa) (protein)
chain: MVSLTPNPSYSVSLLLELPNHAGTLASVTQAIADAGGSFGQISLIESNLKLTRREIAVDASSSEHAEKIIGAVKALDNVKLLKVSDRTFDLHRQGKISVVSRIPLTSQSDLAMAYTPGVGRICRAIAEDPEKVYSLTIKSNTVAVVTDGSAVLGLGNLGPEAALPVMEGKAMLFKEFAQLDAFPICLDTQDTEEIIRTVKAIAPVFGGVNLEDIAAPRCFEIEARLKKELNIPVFHDDQHGTAIVTLAALLNALKFVGKAMAAVRIVINGAGAAGLAIAELLKESGATDIWICDSKGIVGKHRTDLNSKKQSFAVDAEGTLADAMAGADVFLGVSAPGVVTKEMVQSMAKDPIVFAMANPIPEIQPELIQEDAAVIATGRSDYPNQINNVLAFPGVFRGAIDCRASIITTTMCIEAAKAIASLVHSNTLDSEHIIPSVFDNRVATTVASAVQLAARNEGVAGQ
notes: full length, His-tagged (pQE80L), E. coli BL21(DE3), synthesized gene
Purified protein [5]
  K0.5: 0.015 ± 0.001 mM
  kcat: 55.7 ± 3.3 s⁻¹
  kcat/Km: 3.689e+06 ± 23000 M⁻¹ s⁻¹
Purified protein [4]; [16]
  K0.5: 0.46 ± 0.06 mM
  kcat: 77.2 s⁻¹
  kcat/Km: 169000 M⁻¹ s⁻¹

B3: NoME (Nostoc sp. PCC 7120 = FACHB-418) (protein)
chain: MADLTPNSSFSVTLRLQIPNRVGMLASITQAIASSGGNLGQIDLIEQTRQVSLRDLTVDAASTEHAETIVQAVKAIPDIKLVSVYDRTFNLHRGGKISITSRIPLKSVSDLAMAYTPGVGRVCTAIAQDPSQVYNLTIKQNTVAIVTDGSAVLGLGNLGPHAALPVMEGKAMLFKEFAGLDAFPICLATQDTEEIIQAVKNIAPVFGGVNLEDIAAPRCFEIEKRLRDELDIPVFHDDQHGTAIVTLAALFNSLKLVQKSLADIRIVINGAGAAGVAIARLLRKAGAEKIWMCDSKGIISTTRTDLNEEKQEFAVKAQGTLAGAVQGADVFIGVSAPGVLTPEMVKSMAKDAIVFAMANPIPEIQPELISKDVAVIATGRSDYPNQINNVLAFPGVFRGALDCRAQTITTTMYLEAASAIASLVNPSDLSREHIIPSVFDERVVTAVAAAVQRAAREEGIARG
notes: as for B1
Purified protein [6]
  K0.5: 0.014 ± 0.004 mM
  kcat: 33.4 ± 3.2 s⁻¹
  kcat/Km: 2.53e+06 ± 436000 M⁻¹ s⁻¹
Purified protein [7]
  K0.5: 0.0074 ± 0.001 mM
  kcat: 0.85 ± 0.03 s⁻¹
  kcat/Km: 116000 ± 10000 M⁻¹ s⁻¹
Purified protein [8]
  K0.5: 6.55 ± 0.38 mM
  kcat: 0.79 ± 0.03 s⁻¹
  kcat/Km: 120 ± 3 M⁻¹ s⁻¹
Purified protein [4]; [17]
  K0.5: 0.41 ± 0.02 mM
  kcat: 30.3 s⁻¹
  kcat/Km: 75000 M⁻¹ s⁻¹

B4: NoMDH (Nostoc sp. PCC 7120 = FACHB-418) (protein)
chain: MFSSPDSPILHCLPRVAIIGAGRVGSTLAQRIAEKNLADVVLLDIVEGIPQGLALDLLEARGIELHNRQIIGTNNYADTSGSQIVVITAGFPRKPGMSRDDLLRTNAKIVIEAAKQAIAYSPYAIFIVVTNPLDVMTYLAWEATGLPRNRIMGMAGVLDSARFETFIALELGVLPADVKAMVLGSHGDLMVPLSRYATVNGIPITQLLDAVTIERLVERTRNGGAEIVELMQTGGAFFAPASATSLMVESILLNQSRLLPVSIYLQGEYDLKDVVIGVPCRLGLNGIESVIELNLSDSEREALHISAKSVQKNIERWRSLQNS
notes: full length, GST-tagged (pGEX6P-1), tag kept, E. coli BL21(DE3), 10°C expression
Purified protein [9]
  K0.5: 0.0093 ± 0.0001 mM
  kcat: 1.3 ± 0.1 s⁻¹
  kcat/Km: 142000 ± 8000 M⁻¹ s⁻¹
Purified protein [10]
  K0.5: 0.026 ± 0.002 mM
  kcat: 1.1 ± 0.03 s⁻¹
  kcat/Km: 42000 ± 2000 M⁻¹ s⁻¹
Purified protein [11]
  K0.5: 8.45 ± 1.95 mM
  kcat: 6.3 ± 0.5 s⁻¹
  kcat/Km: 770 ± 100 M⁻¹ s⁻¹
Purified protein [4]; [18]
  K0.5: 1.88 ± 0.56 mM
  kcat: 3.5 s⁻¹
  kcat/Km: 2000 M⁻¹ s⁻¹

B5: SyMDH (Synechocystis sp. PCC 6803 substr. Kazusa) (protein)
chain: MNILEYAPIACQSWQVTVVGAGNVGRTLAQRLVQQNVANVVLLDIVPGLPQGIALDLMAAQSVEEYDSKIIGTNEYEATAGSDVVVITAGLPRRPGMSRDDLLGKNANIVAQGAREALRYSPNAILIVVTNPLDVMTYLAWKVTGLPSQRVMGMAGVLDSARLKAFIAMKLGACPSDINTLVLGGHGDLMLPLPRYCTVSGVPITELIPPQTIEELVERTRNGGAEIAALLQTGTAYYAPASSAAVMVESILRNQSRILPAATYLDGAYGLKDIFLGVPCRLGCRGVEDILEVQLTPEEKAALHLSAEAVRLNIDVALAMVSDG
notes: as for B2
Purified protein [12]
  K0.5: 0.018 ± 0.002 mM
  kcat: 6.6 ± 0.5 s⁻¹
  kcat/Km: 364000 ± 19000 M⁻¹ s⁻¹
Purified protein [13]
  K0.5: 0.11 ± 0.002 mM
  kcat: 4 ± 0.04 s⁻¹
  kcat/Km: 36000 ± 1000 M⁻¹ s⁻¹
Purified protein [14]
  K0.5: 1.34 ± 0.30 mM
  kcat: 1.8 ± 0.1 s⁻¹
  kcat/Km: 1400 ± 200 M⁻¹ s⁻¹
Purified protein [4]; [19]
  K0.5: 1.61 ± 0.37 mM
  kcat: 1 s⁻¹
  kcat/Km: 640 M⁻¹ s⁻¹
